Measured values taken from paper PMC2699497.

B1: 5'-FAM 10-mer nontarget duplex (dsDNA)
DNA 1: TCGATCGATG
DNA 2: CATCGATCGA
B2: unlabeled 10-mer nontarget duplex (NMR) (dsDNA)
DNA 1: CTGGATCCAG
DNA 2: CTGGATCCAG

Legend:
[1] = molecular target: T1, human uracil DNA glycosylase (UNG) (human, UniProt P13051 94-313); assay: fluorescence anisotropy
[2] = molecular target: T1, human uracil DNA glycosylase (UNG); assay: NMR HSQC titration, relaxation dispersion

T1 sequence (P13051 94-313): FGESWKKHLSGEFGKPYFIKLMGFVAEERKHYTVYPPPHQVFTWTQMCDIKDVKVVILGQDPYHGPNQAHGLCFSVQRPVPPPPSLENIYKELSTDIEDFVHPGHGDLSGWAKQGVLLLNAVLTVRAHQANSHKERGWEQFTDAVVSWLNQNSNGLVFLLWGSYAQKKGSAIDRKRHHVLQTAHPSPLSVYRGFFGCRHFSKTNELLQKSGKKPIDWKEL

Binder | Kd [1] | binding result [2]
B1 | 29 ± 0.4 µM | 
B2 |  | binds
